Data as given in US20240209112A1 (GENOME, published 2024).

T1: BCAM protein (antigenic protein coated in the ELISA) (UniProt P50895 32-547, limits assumed)
T1 construct: also called antigen protein; Lu
T1 sequence (looked up): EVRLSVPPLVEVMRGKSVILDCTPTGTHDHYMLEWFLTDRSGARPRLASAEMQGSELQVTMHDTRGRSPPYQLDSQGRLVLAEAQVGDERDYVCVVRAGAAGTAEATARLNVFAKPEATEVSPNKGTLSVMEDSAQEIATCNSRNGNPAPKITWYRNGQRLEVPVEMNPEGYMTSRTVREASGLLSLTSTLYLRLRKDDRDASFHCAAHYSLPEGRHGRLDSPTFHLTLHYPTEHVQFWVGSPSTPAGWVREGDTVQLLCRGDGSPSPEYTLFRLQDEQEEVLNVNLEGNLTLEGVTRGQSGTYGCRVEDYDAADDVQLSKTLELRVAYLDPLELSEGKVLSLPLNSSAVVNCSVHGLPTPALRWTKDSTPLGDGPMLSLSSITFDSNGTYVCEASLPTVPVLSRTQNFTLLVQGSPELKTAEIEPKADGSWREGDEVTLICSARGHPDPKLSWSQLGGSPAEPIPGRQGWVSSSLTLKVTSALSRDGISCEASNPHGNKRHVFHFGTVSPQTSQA

T2: Human BCAM expressed on transfected HEK293FT cells (human, UniProt P50895 32-628)
T2 construct: whole, on cells; also called Human BCAM antigens; 293FT/BCAM1
T2 sequence (looked up): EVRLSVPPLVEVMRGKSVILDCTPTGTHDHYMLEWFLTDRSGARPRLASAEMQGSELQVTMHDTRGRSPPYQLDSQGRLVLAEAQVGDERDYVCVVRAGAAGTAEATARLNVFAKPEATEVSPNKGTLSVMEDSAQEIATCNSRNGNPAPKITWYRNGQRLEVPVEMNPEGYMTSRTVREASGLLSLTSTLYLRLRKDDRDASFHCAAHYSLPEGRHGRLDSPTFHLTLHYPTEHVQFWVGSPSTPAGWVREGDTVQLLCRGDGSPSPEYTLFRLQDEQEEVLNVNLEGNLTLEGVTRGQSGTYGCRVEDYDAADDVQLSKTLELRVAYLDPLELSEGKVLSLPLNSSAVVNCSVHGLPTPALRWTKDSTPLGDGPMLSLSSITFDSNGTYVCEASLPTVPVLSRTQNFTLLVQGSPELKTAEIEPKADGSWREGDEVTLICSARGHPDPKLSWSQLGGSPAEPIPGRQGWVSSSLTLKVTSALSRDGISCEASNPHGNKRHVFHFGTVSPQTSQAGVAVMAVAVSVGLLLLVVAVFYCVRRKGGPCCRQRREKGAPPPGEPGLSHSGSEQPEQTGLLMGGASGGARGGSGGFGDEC

T3: Human BCAM (amine-coupled to AR2G biosensors) (human, UniProt P50895 32-547, limits assumed)
T3 construct: also called human BCAM protein
T3 sequence (looked up): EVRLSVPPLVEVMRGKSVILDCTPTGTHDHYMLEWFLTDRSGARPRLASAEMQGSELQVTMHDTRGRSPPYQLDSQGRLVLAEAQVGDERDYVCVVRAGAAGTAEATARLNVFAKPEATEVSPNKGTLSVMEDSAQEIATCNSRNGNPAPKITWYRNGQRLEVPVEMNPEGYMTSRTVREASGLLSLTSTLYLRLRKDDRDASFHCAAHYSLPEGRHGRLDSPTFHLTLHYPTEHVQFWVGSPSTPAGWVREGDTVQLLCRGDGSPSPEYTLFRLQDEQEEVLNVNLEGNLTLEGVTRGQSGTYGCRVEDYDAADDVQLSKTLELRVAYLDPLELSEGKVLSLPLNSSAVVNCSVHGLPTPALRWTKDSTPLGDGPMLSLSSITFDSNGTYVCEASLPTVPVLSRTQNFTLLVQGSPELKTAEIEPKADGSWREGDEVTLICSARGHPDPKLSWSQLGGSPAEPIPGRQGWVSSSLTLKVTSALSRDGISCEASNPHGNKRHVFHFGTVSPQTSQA


Legend:
[1] = target: T1, BCAM protein (antigenic protein coated …); experiment: ELISA, BCAM coated at 15 nM, antibody at 1 nM
Method: (§1) In order to confirm the binding ability of each antibody prepared in Example 1 to an antigen protein (BCAM protein), an ELISA (Enzyme-Linked Immunosorbent Assay) test was performed. The antigenic protein was diluted in PBS buffer and prepared to a concentration of 15 nM. Each well of a 96-well half plate (Costar, Cat. No. 3690) was coated with 50 μL of the antigenic protein, followed by overnight incubation at 4° C. Next day, after all the solutions in the plate were removed, a blocking buffer (3% BSA in PBS) was added to each well, followed by incubation at 37° C. for 1 hour. Three antibody samples (111a, 111b, and 111c) were sequentially diluted in the blocking buffer from 1 μM to 7 points (1 pM) at a dilution ratio of 10-fold. After the blocking process was completed, the buffer was removed from the well, and the antibodies prepared by the dilution was added to each well by 50 μL, followed by incubation at 37° C. for 2 hours. The incubated well was washed with 0.1% PBST (0.1% Tween 20 in PBS) and were treated with HRP-conjugated anti-human IgG Fc antibodies (ThermoFisher Scientific, Cat. No.: 31423) which were secondary antibodies for antibody detection at 37° C. for 1 hour, and then washed again with 0.1% PBST. ABTS solution (ThermoFisher Scientific, Cat. No.: 00-2024) was added to each well by 50 μL for coloring, and reacted at room temperature for 10 minutes, and an optical density at 405 nm (OD₄₀₅) was measured. In order to compare the degree of avidity of each antibody to antigens, the EC50 concentration of each antibody was calculated, and the results are shown in Table 4.

[2] = target: T2, Human BCAM expressed on transfected …; experiment: flow cytometry on HEK293FT cells transfected with human BCAM
Method: Human BCAM antigens were expressed in HEK293FT cells via transfection (using 293FT/BCAM1 plasmid). The transfected HEK293FT cells (1×10⁵ cells) were suspended in PBS and 50 μL thereof was seeded on a plate.
Separately, each of the anti-BCAM antibodies of Example 1 and isotype control (human IgG) antibodies was initially diluted at a concentration of 45 μg/mL using PBS and diluted 12 times through 3-fold dilution, and the plate was incubated at an appropriate time and at an appropriate temperature. As a negative control, PBS buffer was used.
Then, after washing, AlexaFluor® 647 AffiniPure Goat Anti-Human IgG (H+L) (min X Bov, Hrs, Ms Sr Prot) (Jackson) (1 μg/mL) was added thereto and the plate was incubated again, washed again with PBS, and the binding degree of antigen-antibody was analyzed with a flow cytometer.

[3] = target: T3, Human BCAM (amine-coupled to AR2G …); experiment: BLI (Octet QK), human BCAM amine-coupled to AR2G sensor, antibody in solution, 1:1 fit
Method: The binding ability confirmation test according to BLI for the three antibodies prepared in Example 1 was performed using Octet (Octet QK, ForteBio).
Specifically, in order to bind human BCAM (antigen) using amine coupling, Reactive 2nd Generation (AR2G) biosensors (Cat. No. 18-5094, Sartorius) were mounted and activated using the AE2G reagent kit (Cat. No. 18-5095). Thereafter, the biosensors were put in an antigen solution for 10 minutes to bind the human BCAM, and put in an ethanolamine solution for 5 minutes to terminate the reaction. The biosensors to which the human BCAM was bound was put into a buffer containing the prepared three different antibodies 111a, 111b, and 111c, and the binding reaction was monitored for 5 minutes, followed by a dissociation reaction for 15 minutes. At this time, antibody solutions were sequentially diluted, and association and dissociation rates depending on different concentrations were verified. The association (Ka) and dissociation (Kd) rate constants were determined by fitting them to a 1:1 binding model using a curve-fitting software. The binding dissociation equilibrium constant (KD) was calculated with KD=Kd/Ka.

[4] = target: T1, BCAM protein (antigenic protein coated …); experiment: ELISA, BCAM coated at 15 nM, antibody at 0.1 nM
Method: as §1

[5] = target: T1, BCAM protein (antigenic protein coated …); experiment: ELISA on coated BCAM protein
Method: as §1

[6] = target: T1, BCAM protein (antigenic protein coated …); experiment: ELISA, BCAM coated at 15 nM, antibody at 100 nM
Method: as §1

[7] = target: T1, BCAM protein (antigenic protein coated …); experiment: ELISA, BCAM coated at 15 nM, antibody at 0.01 nM
Method: as §1

[8] = target: T1, BCAM protein (antigenic protein coated …); experiment: ELISA, BCAM coated at 15 nM, antibody at 1000 nM
Method: as §1

[9] = target: T1, BCAM protein (antigenic protein coated …); experiment: ELISA, BCAM coated at 15 nM, antibody at 0.001 nM
Method: as §1

[10] = target: T1, BCAM protein (antigenic protein coated …); experiment: ELISA, BCAM coated at 15 nM, antibody at 10 nM
Method: as §1

Binder	OD405 [1]	EC50 [2]	Kd [3]	koff [3]	kon [3]	OD405 [4]	EC50 [5]	OD405 [6]	OD405 [7]	OD405 [8]	OD405 [9]	OD405 [10]
anti-BCAM human IgG4 antibody 111a (antibody, V domains shown, Derived from a human scFv phage library; also called 11la) VH: QVTLKESGPGLVKPSGTLSLTCAVSGGSISSSNWWSWVRQPPGKGLEWIGEIYHSGSTNYNPSLKSRVTISVDKSKNQFSLKLSSVTAADTAVYYCARAYTVTTTYFDYWGQGTLVTVSS VL: NIQMTQSPSTLSASVGDRVTITCRASQSMSTWLAWYQQKPGRAPKLLIYKASALETGVPSRFSGSGSGTQFTLTISSLQPDDFATYYCQQYDEFASFGQGTKVEIK	0.46 OD405	0.189 µg/mL	2.47 nM	0.000397 s⁻¹	161000 M⁻¹ s⁻¹	0.18 OD405	12.5 nM	2.14 OD405	0.11 OD405	2.32 OD405	0.1 OD405	1.09 OD405
anti-BCAM human IgG4 antibody 111b (antibody, V domains shown) VH: EVQLVQSGAEVKKPGASVKVSCKASGYTFTSYYMHWVRQAPGQGLEWMGIINPSGGSTSYAQKFQGRVTMTRDTSTSTVYMELSSLRSEDTAVYYCARDGKGWDYYGSGSPLQYWGQGTLVTVSS VL: LPVLTQPPSVSKGLRQTATLTCTGNSNNVGNQGAAWLQQHQGHPPKLLSYRNNDRPSGISERLSASRSGNTASLTITGLQPEDEADYYCSAWDSSLSAWVFGGGTKLTVL	0.33 OD405	0.171 µg/mL	13.1 nM	0.000306 s⁻¹	23400 M⁻¹ s⁻¹	0.35 OD405	127 nM	0.46 OD405	0.15 OD405	0.76 OD405	0.1 OD405	0.43 OD405
anti-BCAM human IgG4 antibody 111c (antibody, V domains shown) VH: EVQLVQSGGGLVKPGGSLRLSCAASGFTFSDYYMSWIRQAPGKGLEWVSYTSSSGSTIYYADSVKGRFTISRDNAKNSLYLQMNSLRAEDTAVYYCARDITAFDIWGQGTMVTVSS VL: LPVLTQPPSASGSPGQSVTISCTGTSSDVGGYNYVSWYQQHPGKAPKLMIYEVNKRPSGVPDRFSGSKSGNTASLTVSGLQAEDEADYYCCSYAGSNNYVFGTGTKVTVL	0.5 OD405	0.0427 µg/mL	0.084 nM	0.000255 s⁻¹	3.04e+06 M⁻¹ s⁻¹	0.31 OD405	7.7 nM	2.26 OD405	0.25 OD405	2.34 OD405	0.11 OD405	1.41 OD405
